According to US11491212:

Experiments:
[1] = biological target: Factor X, P00742
[2] = biological target: Factor X (FX), P00742
Chain of Factor X (FX), P00742 (P00742 whole entry, looked up): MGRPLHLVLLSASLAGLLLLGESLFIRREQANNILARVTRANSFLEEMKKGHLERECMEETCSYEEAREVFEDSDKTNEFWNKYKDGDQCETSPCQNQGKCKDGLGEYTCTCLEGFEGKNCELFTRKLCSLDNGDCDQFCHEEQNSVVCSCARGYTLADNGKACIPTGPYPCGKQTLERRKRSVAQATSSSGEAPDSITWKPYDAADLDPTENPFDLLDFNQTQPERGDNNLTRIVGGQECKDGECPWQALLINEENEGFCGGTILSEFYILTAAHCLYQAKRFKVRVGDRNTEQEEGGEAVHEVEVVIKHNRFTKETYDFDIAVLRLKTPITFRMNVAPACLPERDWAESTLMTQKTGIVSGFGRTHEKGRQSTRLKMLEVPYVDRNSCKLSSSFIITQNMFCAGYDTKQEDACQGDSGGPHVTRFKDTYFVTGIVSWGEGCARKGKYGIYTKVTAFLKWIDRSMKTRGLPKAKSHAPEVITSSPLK

Chain of Factor X, P00742 (P00742 whole entry, looked up): as above

B1: FIXa K228N/R318Y/R338E/T343R/R403E/E410N (protein)
chain 1: not shown
chain 2: not shown
- % of WT kcat/KM [1]: 593%
- kcat/KM [1]: 2.7e+08 M⁻¹ s⁻¹
- kcat (s^-1), activation of FX by FIXa in the Xase complex [2]: 10.5 s⁻¹

B2: FIXa-K228N/K247N/N249S/R318Y/R338E/R403E/E410N (protein)
chain 1: not shown
chain 2: not shown
- kcat [1]: 7.1 s⁻¹
- % of WT kcat/KM (against Catalyst Biosciences WT FIXa) [2]: 352%
- KM [2]: 0.0497 µM
- kcat/KM for activation of FX by FIXa in the Xase complex (FVIIIa, PC/PS vesicles, Ca2+), fluorogenic Spectrafluor FXa read-out [2]: 1.6e+08 M⁻¹ s⁻¹

B3: FIXa-D104N/K106S/Y155F/K247N/N249S/R318Y/R338E/R403E/E410N (protein)
chain 1: not shown
chain 2: not shown
- kcat [1]: 6.9 s⁻¹
- % of WT kcat/KM (against Catalyst Biosciences WT FIXa) [2]: 292%
- KM [2]: 0.0518 µM
- kcat/KM for activation of FX by FIXa in the Xase complex (FVIIIa, PC/PS vesicles, Ca2+), fluorogenic Spectrafluor FXa read-out [2]: 1.3e+08 M⁻¹ s⁻¹

B4: FIXa R318Y/T343R/E410N (protein)
chain 1: not shown
chain 2: not shown
- % of WT kcat/KM [1]: 135%
- kcat/KM [1]: 6.2e+07 M⁻¹ s⁻¹
- kcat (s^-1), activation of FX by FIXa in the Xase complex [2]: 3.2 s⁻¹

B5: FIXa K228N/K247N/N249S/R318Y/R338E/T343R/R403E (protein)
chain 1: not shown
chain 2: not shown
- % of WT kcat/KM [1]: 636%
- kcat/KM [1]: 2.9e+08 M⁻¹ s⁻¹
- kcat (s^-1), activation of FX by FIXa in the Xase complex [2]: 10.9 s⁻¹

B6: FIXa-Y155F/K228N/R318Y/R338E/R403E/E410N (protein)
chain 1: not shown
chain 2: not shown
- kcat [1]: 6.7 s⁻¹
- % of WT kcat/KM (against Catalyst Biosciences WT FIXa) [2]: 356%
- KM [2]: 0.0408 µM
- kcat/KM for activation of FX by FIXa in the Xase complex (FVIIIa, PC/PS vesicles, Ca2+), fluorogenic Spectrafluor FXa read-out [2]: 1.6e+08 M⁻¹ s⁻¹

B7: FIXa-I251S/R318Y/R338E/E410N (protein)
chain 1: not shown
chain 2: not shown
- kcat [1]: 6.4 s⁻¹
- % of WT kcat/KM (against Catalyst Biosciences WT FIXa) [2]: 849%
- KM [2]: 0.0161 µM
- kcat/KM for activation of FX by FIXa in the Xase complex (FVIIIa, PC/PS vesicles, Ca2+), fluorogenic Spectrafluor FXa read-out [2]: 3.9e+08 M⁻¹ s⁻¹

B8: FIXa-R318Y/R338E/R403E/E410S (protein)
chain 1: not shown
chain 2: not shown
- kcat [1]: 7.4 s⁻¹
- % of WT kcat/KM (against Catalyst Biosciences WT FIXa) [2]: 458%
- KM [2]: 0.0364 µM
- kcat/KM for activation of FX by FIXa in the Xase complex (FVIIIa, PC/PS vesicles, Ca2+), fluorogenic Spectrafluor FXa read-out [2]: 2.1e+08 M⁻¹ s⁻¹

B9: FIXa-Y155F/K247N/N249S/R318Y/R338E/R403E/E410N (protein)
chain 1: not shown
chain 2: not shown
- kcat [1]: 6.2 s⁻¹
- % of WT kcat/KM (against Catalyst Biosciences WT FIXa) [2]: 405%
- KM [2]: 0.0363 µM
- kcat/KM for activation of FX by FIXa in the Xase complex (FVIIIa, PC/PS vesicles, Ca2+), fluorogenic Spectrafluor FXa read-out [2]: 1.9e+08 M⁻¹ s⁻¹

B10: FIXa K228N/K247N/N249S/R318Y/R338E/T343R/E410N (protein)
chain 1: not shown
chain 2: not shown
- % of WT kcat/KM [1]: 278%
- kcat/KM [1]: 1.3e+08 M⁻¹ s⁻¹
- kcat (s^-1), activation of FX by FIXa in the Xase complex [2]: 4.7 s⁻¹

B11: FIXa K228N/K247N/N249S/R318Y/T343R/R403E/E410N (protein)
chain 1: not shown
chain 2: not shown
- % of WT kcat/KM [1]: 153%
- kcat/KM [1]: 7.1e+07 M⁻¹ s⁻¹
- kcat (s^-1), activation of FX by FIXa in the Xase complex [2]: 8.1 s⁻¹

B12: FIXa-Y155F/K247N/N249S/R318Y/R338E/E410N (protein)
chain 1: not shown
chain 2: not shown
- kcat [1]: 4.5 s⁻¹
- % of WT kcat/KM (against Catalyst Biosciences WT FIXa) [2]: 717%
- KM [2]: 0.0147 µM
- kcat/KM for activation of FX by FIXa in the Xase complex (FVIIIa, PC/PS vesicles, Ca2+), fluorogenic Spectrafluor FXa read-out [2]: 3.3e+08 M⁻¹ s⁻¹
